In US7691590B2, “Reducing myelin-mediated inhibition of axon regeneration” (Children's Medical Center Corporation, priority 2001, dated 2010):
Where two headings read alike, the source gives them in different places.

T1: Nogo receptor (NgR) (Homo sapiens, UniProt Q9BZR6)
T1 construct: both cDNAs contained the full-length coding region of the Nogo-66 receptor (NgR); expressed in transfected cells; host or cells: CHO cells stably expressing NgR (COS-7 for the library clones)
T1 sequence (Q9BZR6 27-473): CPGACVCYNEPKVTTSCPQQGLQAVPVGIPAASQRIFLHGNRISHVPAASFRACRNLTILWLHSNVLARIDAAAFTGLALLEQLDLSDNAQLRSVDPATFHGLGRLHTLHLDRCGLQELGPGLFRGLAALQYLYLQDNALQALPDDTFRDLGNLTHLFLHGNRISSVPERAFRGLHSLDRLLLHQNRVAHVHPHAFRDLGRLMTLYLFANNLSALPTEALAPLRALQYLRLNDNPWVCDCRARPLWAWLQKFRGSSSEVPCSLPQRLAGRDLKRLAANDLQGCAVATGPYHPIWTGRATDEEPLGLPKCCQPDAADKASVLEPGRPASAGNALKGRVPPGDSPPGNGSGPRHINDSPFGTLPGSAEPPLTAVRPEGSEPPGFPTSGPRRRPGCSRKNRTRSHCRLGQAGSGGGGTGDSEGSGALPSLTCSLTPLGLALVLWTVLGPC


Tests used:
[1] = biological target: T1, Nogo receptor (NgR); assay: Cell surface binding of AP fusion proteins to NgR-expressing cells (saturation analysis); settings: CHO cell line stably expressing NgR; read-out: binding affinity of expressed NgR for AP-OM
Description: To investigate the mechanisms by which OMgp inhibits neurite outgrowth, we used an expression cloning strategy^9,13,16 to identify cell surface OMgp-binding proteins. […] From pools of an adult human brain cDNA expression library, we isolated two cDNAs that encoded OMgp-binding proteins. […] We then established a CHO cell line stably expressing the NgR and determined the binding affinity of expressed NgR for AP-OM as 5 nM, similar to what had been determined for Nogo-66 (7 nM, ref. 9). […] We next performed co-precipitation experiments by incubating GST or a GST fusion protein containing the entire extracellular domain of NgR (GST-NgR) with OM-his alone or in the presence of AP or AP-66 protein. […] We next determined which domain(s) of OMgp was responsible for binding to NgR. Like NgR, OMgp is also a GPI-linked protein containing a leucine-rich repeat (LRR) domain. […]
Cell surface binding and expression cloning were performed as described previously^4,13,17. […] After extensive washing and heat inactivation, the bound proteins were detected by AP staining using nitro blue tetrazolium (NBT) and 5-bromo-4-chloro-3-indoyl phosphate (BCIP) as substrate. For saturation analysis, we disrupted cells and detected bound AP fusion proteins using r-nitrophenyl phosphate as substrate. […]

[2] = system: growth cones of E13 chick DRG neurons; assay: Growth cone collapse assay with E13 chick DRG explants; type: cell-based; settings: E13 chick DRG
Source text: OMgp is a Physiological Nogo Receptor Ligand and Inhibitor of Neurite Outgrowth. To examine whether any GPI-linked proteins in CNS myelin may act as inhibitors of neurite outgrowth, we treated purified bovine white matter myelin with phosphatidylinositol-specific phospholipase C (PI-PLC) and examined the released proteins for their ability to alter growth cone morphology in a growth cone collapse assay using embryonic day 13 chick dorsal root ganglia (E13 DRG)^6,9,10. […] Since the size of this band was similar to that of a previously identified CNS myelin protein OMgp^11,12, we used antibodies specific for OMgp to detect enrichment of cleaved OMgp in the PI-PLC supernatants by Western blot. […] Next, we examined whether purified recombinant OMgp protein was able to act as an inhibitor of neurite outgrowth in two well-established in vitro assays, the growth cone collapse^6,9,13 and the neurite outgrowth assays^3-7,9.
Growth Cone Collapse and Neurite Outgrowth Assays. Chick E13 DRG and E7 retina were isolated and cultured as described previously^9,10. DRG explants cultured overnight were used for growth cone collapse assays. To assess the effects of PI-PLC treatment, cultures were pre-incubated with 2 U/ml PI-PLC for 30 min prior to treatment with individual test proteins for an additional 30 min. To express NgR in E7 retinal ganglion neurons, we infected the explants with recombinant HSV for 24 hr. After incubation with each test protein for 30 min, retinal explants were fixed in 4% paraformaldehyde and 15% sucrose. Infection of HSV-LacZ was detected by a standard b-galatosidase staining protocol^20. FLAG-NgR expression was detected by incubating paraformaldehyde-fixed cultures with M2 anti-FLAG antibody (Sigma). Bound antibody was detected by incubation with AP-conjugated […] IgG second antibody and reaction with NBT and BCIP (Vector labs). Growth cone collapse was quantified only in those positively stained for b-galatosidase or immunoreactive for the FLAG epitope.

[3] = system: chick E7 retinal ganglion neurons (RGN) expressing human NgR; assay: Growth cone collapse in E7 retinal ganglion neurons expressing FLAG-NgR (HSV infection); type: cell-based; settings: E7 RGN infected with HSV FLAG-NgR
Source text: To assess whether NgR is capable of mediating OMgp-induced inhibitory activity on neurite outgrowth, we next took a gain-of-function approach to examine whether expression of NgR was able to confer OMgp-responsiveness to otherwise insensitive neurons. It has been shown previously that chick E7 retinal ganglion neurons (RGN) are insensitive to Nogo-66, but that introduction of exogenous NgR in these neurons rendered their growth cones to be responsive to Nogo-66^9. Using the same strategy, we made a recombinant herpes simplex virus (HSV) that drives expression of a FLAG-tagged full-length human NgR (FLAG-NgR) in infected neurons. Upon infection, 80% of the E7 RGNs expressed the FLAG-NgR protein as assessed by immunocytochemistry with an anti-FLAG antibody. […] Furthermore, the growth cones of NgR-expressing axons also become collapsible by OMgp.
Growth Cone Collapse and Neurite Outgrowth Assays. […] Infection of HSV-LacZ was detected by a standard b-galatosidase staining protocol^20. FLAG-NgR expression was detected by incubating paraformaldehyde-fixed cultures with M2 anti-FLAG antibody (Sigma). Bound antibody was detected by incubation with AP-conjugated […] IgG second antibody and reaction with NBT and BCIP (Vector labs). Growth cone collapse was quantified only in those positively stained for b-galatosidase or immunoreactive for the FLAG epitope.

[4] = biological target: T1, Nogo receptor (NgR); settings: read-out: binding affinity of NgR for Nogo-66; cited from earlier work

Kd [1] | Molecule | growth cone collapsing activity [2] | growth cone collapse response in NgR-expressing neurons [3] | growth cone collapsing activity after PI-PLC treatment of the neurons ([2]; PI-PLC pre-incubation) | Kd [4]
5 nM | AP-OM: alkaline phosphatase fusion protein containing mouse OMgp, polyhistidine and myc tagged (protein, left off: large carriers; small tags and cut ends, alkaline phosphatase fusion protein containing mouse OMgp, polyhistidine and myc tagged) ICPLQCTCTERHRHVDCSGRNLTTLPPGLQENIIHLNLSYNHFTDLHNQLTPYTNLRTLDISNNRLESLPAQLPRSLWNMSAANNNIKLLDKSDTAYQWNLKYLDVSKNMLEKVVLIKNTLRSLEVLNLSSNKLWTVPTNMPSKLHIVDLSNNSLTQILPGTLINLTNLTHLYLHNNKFTFIPEQSFDQLLQLQEITLHNNRWSCDHKQNITYLLKWVMETKAHVIGTPCSKQVSSLKEQSMYPTPPGFTSSLFTMSEMQTVDTINSLSMVTQPKVTKTPKQYRGKETTFGVTLSKDTTFSSTDRAVVAYPEDTPTEMTNSHEAAAATLTIHLQDGMSSNASLTSATKSPPSPVTLSIARGMPNNFSEMPRQSTTLNLRREETTANGNTRPPS | induce collapse |  |  | 
 | Nogo-66: 66 amino acid extracellular domain of Nogo-A (protein, left off: large carriers, 66 amino acid extracellular domain of Nogo-A) RIYKGVIQAIQKSDEGHPFRAYLESEVAISEELVQKYSNSALGHVNCTIKELRRLFLVDDLVDSLK |  | conferred a growth cone collapse response | insensitive | 7 nM
